Columns and labels:
[1] = target: human FcRn (heterodimer of alpha chain and beta2-microglobulin) (human) (UniProt P55899); experiment: Biacore (SPR), column 'hFcRn Affinity (uM)'; antibody captured on anti-hFab CM5 chip, hFcRn as analyte, PBS pH 6.0, 1:1 Langmuir fit
[2] = target: recombinant human TNF (human) (UniProt P01375); experiment: Biacore (SPR), column 'hTNF Affinity (pM)'; antibody amine-coupled to a CM4 chip, recombinant human TNF as analyte at 6.25-200 nM in HBS-EP pH 7.4, 1:1 Langmuir fit
recombinant human TNF (human), sequence (P01375 77-233 limits assumed): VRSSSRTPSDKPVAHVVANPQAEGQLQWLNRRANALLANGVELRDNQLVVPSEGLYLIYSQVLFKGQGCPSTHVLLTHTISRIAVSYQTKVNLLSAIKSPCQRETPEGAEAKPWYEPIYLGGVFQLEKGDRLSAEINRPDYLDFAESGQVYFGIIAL

human FcRn (heterodimer of alpha chain and beta2-microglobulin) (human), sequence (P55899 24-297 limits assumed, chain 1 of 2): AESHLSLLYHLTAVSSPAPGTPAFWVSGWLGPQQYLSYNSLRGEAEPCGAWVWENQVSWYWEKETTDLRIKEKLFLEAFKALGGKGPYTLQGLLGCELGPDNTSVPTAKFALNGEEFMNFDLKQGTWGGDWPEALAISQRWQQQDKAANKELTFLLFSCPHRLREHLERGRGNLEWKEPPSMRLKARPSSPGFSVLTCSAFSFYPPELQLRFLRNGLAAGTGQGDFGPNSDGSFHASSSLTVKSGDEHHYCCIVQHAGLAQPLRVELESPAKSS
human FcRn (heterodimer of alpha chain and beta2-microglobulin) (human), sequence (P61769 21-119 limits assumed, chain 2 of 2, further chain): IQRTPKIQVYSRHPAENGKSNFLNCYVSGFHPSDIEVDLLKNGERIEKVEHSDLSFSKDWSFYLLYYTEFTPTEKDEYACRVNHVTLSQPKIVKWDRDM

Substance: Humira (Commercial) adalimumab (antibody)
- Kd [1]: 2000 nM
- Kd [2]: 0.00042 nM
